Measured values as given in publication PMC5207153, “Differential Receptor Binding and Regulatory Mechanisms for the Lymphangiogenic Growth Factors Vascular Endothelial Growth Factor (VEGF)-C and -D*^([image sbox.jpg])” (The Journal of Biological Chemistry, 2016).

B1: VEGF-DΔNΔC [human] / Recombinant human VEGFR-3-Fc chimera [human] (parent complex)
chain 1: FYDIETLKVIDEEWQRTQCSPRETCVEVASELGKSTNTFFKPPCVNVFRCGGCCNEESLICMNTSTSYISKQLFEISVPLTSVPELVPVKVANHTGCKCLPTAPRHPYS
chain 2: YSMTPPTLNITEESHVIDTGDSLSISCRGQHPLEWAWPGAQEAPATGDKDSEDTGVVRDCEGTDARPYCKVLLLHEVHANDTGSYVCYYKYIKARIEGTTAASSYVFVRDFEQPFINKPDTLLVNRKDAMWVPCLVSIPGLNVTLRSQSSVLWPDGQEVVWDDRRGMLVSTPLLHDALYLQCETTWGDQDFLSNPFLVHITGNELYDIQLLPRKSLELLVGEKLVLNCTVWAEFNSGVTFDWDYPGKQAERGKWVPERRSQQTHTELSSILTIHNVSQHDLGSYVCKANNGIQRFRESTEVIVHENPFISVEWLKGPILEATAGDELVKLPVKLAAYPPPEFQWYKDGKALSGRHSPHALVLKEVTEASTGTYTLALWNSAAGLRRNISLELVVNVPPQIHEKEASSPSIYSRHSRQALTCTAYGVPLPLSIQWHWRPWTPCKMFAQRSLRRRQQQDLMPQCRDWRAVTTQDAVNPIESLDTWTEFVEGKNKTVSKLVIQNANVSAMYKCVVSNKVGQDERLIYFYVTTIPDGFTIESKPSEELLEGQPVLLSCQADSYKYEHLRWYRLNLSTLHDAHGNPLLLDCKNVHLFATPLAASLEEVAPGARHATLSLSIPRVAPEHEGHYVCEVQDRRSHDKHCHKKYLSVQALEAPRLTQNLTDLLVNVSDSLEMQCLVAGAHAPSIVWYKDERLLEEKSGVDLADSNQKLSIQRVREEDAGRYLCSVCNAKGCVNSSASVAVEGSEDKGSME

Variants of: B1
Assay: ELISA; The same amount of each VEGF-DΔNΔC variant was used; assays conducted three times; parent: 100; read off a plot
In the case of chain 1 FYDIETLKVIDEAWQRTQCSPRETCVEVASELGKSTNTFFKPPCVNVFRCGGCCNEESLICMNTSTSYISKQLFEISVPLTSVPELVPVKVANHTGCKCLPTAPRHPYS [chain 1 E13A], the percent of parent is reported as ~13%. chain 1 FYDIETLKVIDAEWQRTQCSPRETCVEVASELGKSTNTFFKPPCVNVFRCGGCCNEESLICMNTSTSYISKQLFEISVPLTSVPELVPVKVANHTGCKCLPTAPRHPYS [chain 1 E12A] gave a percent of parent of ~100%. Variant chain 1 FYDIETLKVIDEEWQATQCSPRETCVEVASELGKSTNTFFKPPCVNVFRCGGCCNEESLICMNTSTSYISKQLFEISVPLTSVPELVPVKVANHTGCKCLPTAPRHPYS [chain 1 R16A] has a percent of parent of ~100%. For chain 1 FADIETLKVIDEEWQRTQCSPRETCVEVASELGKSTNTFFKPPCVNVFRCGGCCNEESLICMNTSTSYISKQLFEISVPLTSVPELVPVKVANHTGCKCLPTAPRHPYS [chain 1 Y2A], the percent of parent was ~23%. chain 1 FYDAETLKVIDEEWQRTQCSPRETCVEVASELGKSTNTFFKPPCVNVFRCGGCCNEESLICMNTSTSYISKQLFEISVPLTSVPELVPVKVANHTGCKCLPTAPRHPYS [chain 1 I4A] was tested, and the percent of parent was ~99%. With chain 1 FYDIETLKVIDEEWARTQCSPRETCVEVASELGKSTNTFFKPPCVNVFRCGGCCNEESLICMNTSTSYISKQLFEISVPLTSVPELVPVKVANHTGCKCLPTAPRHPYS [chain 1 Q15A] the percent of parent was ~110%. chain 1 FYDIEALKVIDEEWQRTQCSPRETCVEVASELGKSTNTFFKPPCVNVFRCGGCCNEESLICMNTSTSYISKQLFEISVPLTSVPELVPVKVANHTGCKCLPTAPRHPYS [chain 1 T6A] gave a percent of parent of ~97%. chain 1 FYDIETLKAIDEEWQRTQCSPRETCVEVASELGKSTNTFFKPPCVNVFRCGGCCNEESLICMNTSTSYISKQLFEISVPLTSVPELVPVKVANHTGCKCLPTAPRHPYS [chain 1 V9A] showed a percent of parent of ~100%. chain 1 FYAIETLKVIDEEWQRTQCSPRETCVEVASELGKSTNTFFKPPCVNVFRCGGCCNEESLICMNTSTSYISKQLFEISVPLTSVPELVPVKVANHTGCKCLPTAPRHPYS [chain 1 D3A] gave a percent of parent of ~96%. With chain 1 AYDIETLKVIDEEWQRTQCSPRETCVEVASELGKSTNTFFKPPCVNVFRCGGCCNEESLICMNTSTSYISKQLFEISVPLTSVPELVPVKVANHTGCKCLPTAPRHPYS [chain 1 F1A] the percent of parent was ~72%. chain 1 FYDIETLKVIAEEWQRTQCSPRETCVEVASELGKSTNTFFKPPCVNVFRCGGCCNEESLICMNTSTSYISKQLFEISVPLTSVPELVPVKVANHTGCKCLPTAPRHPYS [chain 1 D11A] was tested, and the percent of parent was ~160%.
